± gives the standard deviation of the averaged measurements.
B1: library; a variant is named by its letters at N, in order (parent)
chain: GCUGUCACCGAGAAACUGUGAAGUAUAUCUUAAACCUGGGCACUUAAAAGAUAUAUGGAGUUAGUAGUGCAACCUGCUCGGUCUGAUGAGUCCNNNNNNGGACGAAACAGC

How the values were obtained:
cyclic di-GMP [1] = variants of: B1; assay: normalized RNA/DNA level without ligand (relative to sTRSVctl = 100) (log10 (% of sTRSVctl)); HEK293T; ligand: cyclic di-GMP (c-di-GMP-II aptamer); higher = less ribozyme self-cleavage, higher mRNA level; conditions: reporter: mCherry (pCS4076), ligand present: no
Method in brief: (§1)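 Ribozyme switch library plasmids linked to reporters were introduced into HEK293T cells at 4 µg per 6-well well, with ligand, if any, added 1 h before. Total RNA was extracted with EDTA 72 h later, reverse-transcribed, amplified, barcoded and sequenced. RNA level was computed from RNA over DNA reads relative to a spiked-in non-cleaving sequence or the top sequences, then scaled and log-transformed. The top set was 25 sequences, values were ×100 and log10, and the cutoff was ≥100 DNA reads.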

cyclic di-GMP [2] = variants of: B1; assay: normalized RNA/DNA level with ligand (relative to sTRSVctl = 100) (log10 (% of sTRSVctl)); HEK293T; ligand: cyclic di-GMP (c-di-GMP-II aptamer); ligand concentration (+) RNA-Seq: 1 mM; higher = less ribozyme self-cleavage, higher mRNA level; conditions: reporter: mCherry (pCS4076), ligand present: yes
Method in brief: as §1

Variant | normalized RNA/DNA level without ligand (log10) (cyclic di-GMP [1]) | normalized RNA/DNA level with ligand (log10) (cyclic di-GMP [2])
GCUGUCACCGAGAAACUGUGAAGUAUAUCUUAAACCUGGGCACUUAAAAGAUAUAUGGAGUUAGUAGUGCAACCUGCUCGGUCUGAUGAGUCCCUAUUCGGACGAAACAGC | 1.7 ± 0.012 | 1.85 ± 0.1
GCUGUCACCGAGAAACUGUGAAGUAUAUCUUAAACCUGGGCACUUAAAAGAUAUAUGGAGUUAGUAGUGCAACCUGCUCGGUCUGAUGAGUCCCUAUUGGGACGAAACAGC | 1.626 ± 0.0055 | 1.81 ± 0.1
GCUGUCACCGAGAAACUGUGAAGUAUAUCUUAAACCUGGGCACUUAAAAGAUAUAUGGAGUUAGUAGUGCAACCUGCUCGGUCUGAUGAGUCCCUAUUUGGACGAAACAGC | 1.59 ± 0.024 | 1.75 ± 0.08
GCUGUCACCGAGAAACUGUGAAGUAUAUCUUAAACCUGGGCACUUAAAAGAUAUAUGGAGUUAGUAGUGCAACCUGCUCGGUCUGAUGAGUCCAUAUGCGGACGAAACAGC | 1.67 ± 0.021 | 1.83 ± 0.13
GCUGUCACCGAGAAACUGUGAAGUAUAUCUUAAACCUGGGCACUUAAAAGAUAUAUGGAGUUAGUAGUGCAACCUGCUCGGUCUGAUGAGUCCAUAUGUGGACGAAACAGC | 1.623 ± 0.0061 | 1.8 ± 0.15
GCUGUCACCGAGAAACUGUGAAGUAUAUCUUAAACCUGGGCACUUAAAAGAUAUAUGGAGUUAGUAGUGCAACCUGCUCGGUCUGAUGAGUCCAUAUGGGGACGAAACAGC | 1.56 ± 0.033 | 1.75 ± 0.14
GCUGUCACCGAGAAACUGUGAAGUAUAUCUUAAACCUGGGCACUUAAAAGAUAUAUGGAGUUAGUAGUGCAACCUGCUCGGUCUGAUGAGUCCAUAUGAGGACGAAACAGC | 1.43 ± 0.066 | 1.63 ± 0.071
GCUGUCACCGAGAAACUGUGAAGUAUAUCUUAAACCUGGGCACUUAAAAGAUAUAUGGAGUUAGUAGUGCAACCUGCUCGGUCUGAUGAGUCCAUAUUAGGACGAAACAGC | 1.56 ± 0.05 | 1.76 ± 0.057
GCUGUCACCGAGAAACUGUGAAGUAUAUCUUAAACCUGGGCACUUAAAAGAUAUAUGGAGUUAGUAGUGCAACCUGCUCGGUCUGAUGAGUCCAUAUUGGGACGAAACAGC | 1.6 ± 0.052 | 1.78 ± 0.15
GCUGUCACCGAGAAACUGUGAAGUAUAUCUUAAACCUGGGCACUUAAAAGAUAUAUGGAGUUAGUAGUGCAACCUGCUCGGUCUGAUGAGUCCAUAUUCGGACGAAACAGC | 1.707 ± 0.0056 | 1.84 ± 0.12
GCUGUCACCGAGAAACUGUGAAGUAUAUCUUAAACCUGGGCACUUAAAAGAUAUAUGGAGUUAGUAGUGCAACCUGCUCGGUCUGAUGAGUCCAUAUUUGGACGAAACAGC | 1.67 ± 0.018 | 1.84 ± 0.11
GCUGUCACCGAGAAACUGUGAAGUAUAUCUUAAACCUGGGCACUUAAAAGAUAUAUGGAGUUAGUAGUGCAACCUGCUCGGUCUGAUGAGUCCCUAUGGGGACGAAACAGC | 1.75 ± 0.049 | 1.87 ± 0.09
GCUGUCACCGAGAAACUGUGAAGUAUAUCUUAAACCUGGGCACUUAAAAGAUAUAUGGAGUUAGUAGUGCAACCUGCUCGGUCUGAUGAGUCCCUAUGCGGACGAAACAGC | 1.75 ± 0.042 | 1.86 ± 0.12
GCUGUCACCGAGAAACUGUGAAGUAUAUCUUAAACCUGGGCACUUAAAAGAUAUAUGGAGUUAGUAGUGCAACCUGCUCGGUCUGAUGAGUCCCUAUGAGGACGAAACAGC | 1.6 ± 0.059 | 1.76 ± 0.058
GCUGUCACCGAGAAACUGUGAAGUAUAUCUUAAACCUGGGCACUUAAAAGAUAUAUGGAGUUAGUAGUGCAACCUGCUCGGUCUGAUGAGUCCCUAUGUGGACGAAACAGC | 1.748 ± 0.012 | 1.84 ± 0.088
GCUGUCACCGAGAAACUGUGAAGUAUAUCUUAAACCUGGGCACUUAAAAGAUAUAUGGAGUUAGUAGUGCAACCUGCUCGGUCUGAUGAGUCCUUAUGCGGACGAAACAGC | 1.73 ± 0.012 | 1.81 ± 0.1
GCUGUCACCGAGAAACUGUGAAGUAUAUCUUAAACCUGGGCACUUAAAAGAUAUAUGGAGUUAGUAGUGCAACCUGCUCGGUCUGAUGAGUCCUUAUGUGGACGAAACAGC | 1.7 ± 0.024 | 1.84 ± 0.11
GCUGUCACCGAGAAACUGUGAAGUAUAUCUUAAACCUGGGCACUUAAAAGAUAUAUGGAGUUAGUAGUGCAACCUGCUCGGUCUGAUGAGUCCUUAUUGGGACGAAACAGC | 1.7 ± 0.026 | 1.83 ± 0.16
GCUGUCACCGAGAAACUGUGAAGUAUAUCUUAAACCUGGGCACUUAAAAGAUAUAUGGAGUUAGUAGUGCAACCUGCUCGGUCUGAUGAGUCCUUAUUUGGACGAAACAGC | 1.75 ± 0.06 | 1.86 ± 0.17
GCUGUCACCGAGAAACUGUGAAGUAUAUCUUAAACCUGGGCACUUAAAAGAUAUAUGGAGUUAGUAGUGCAACCUGCUCGGUCUGAUGAGUCCUUAUUAGGACGAAACAGC | 1.68 ± 0.069 | 1.8 ± 0.13
GCUGUCACCGAGAAACUGUGAAGUAUAUCUUAAACCUGGGCACUUAAAAGAUAUAUGGAGUUAGUAGUGCAACCUGCUCGGUCUGAUGAGUCCUUAUUCGGACGAAACAGC | 1.76 ± 0.073 | 1.88 ± 0.14
GCUGUCACCGAGAAACUGUGAAGUAUAUCUUAAACCUGGGCACUUAAAAGAUAUAUGGAGUUAGUAGUGCAACCUGCUCGGUCUGAUGAGUCCGUAUUAGGACGAAACAGC | 1.578 ± 0.0077 | 1.75 ± 0.1
GCUGUCACCGAGAAACUGUGAAGUAUAUCUUAAACCUGGGCACUUAAAAGAUAUAUGGAGUUAGUAGUGCAACCUGCUCGGUCUGAUGAGUCCGUAUUCGGACGAAACAGC | 1.48 ± 0.036 | 1.7 ± 0.11
GCUGUCACCGAGAAACUGUGAAGUAUAUCUUAAACCUGGGCACUUAAAAGAUAUAUGGAGUUAGUAGUGCAACCUGCUCGGUCUGAUGAGUCCGUAUGUGGACGAAACAGC | 1.6045 ± 0.00047 | 1.77 ± 0.087
GCUGUCACCGAGAAACUGUGAAGUAUAUCUUAAACCUGGGCACUUAAAAGAUAUAUGGAGUUAGUAGUGCAACCUGCUCGGUCUGAUGAGUCCGUAUGCGGACGAAACAGC | 1.56 ± 0.065 | 1.75 ± 0.084
GCUGUCACCGAGAAACUGUGAAGUAUAUCUUAAACCUGGGCACUUAAAAGAUAUAUGGAGUUAGUAGUGCAACCUGCUCGGUCUGAUGAGUCCGUAUGGGGACGAAACAGC | 1.53 ± 0.16 | 1.7 ± 0.042

From the supplement of paper PMC6757056
